In article PMC11456856:

Target: human FcRider (afucosylated two-unit tandem hIgG1 Fc joined by the trimerization sequence Foldon)
Assay: native gel or EMSA; blue native PAGE, 1.5 h at 150 V in NativePAGE running buffer; hFcRider purified by Protein A column; monomer ~65 kDa in reducing SDS-PAGE

stoichiometry N: 6
Substance: human FcRider (afucosylated two-unit tandem hIgG1 Fc joined by the trimerization sequence Foldon)
